In publication PMC11852706, “Discovery of three novel neutralizing antibody epitopes on the human astrovirus capsid spike and mechanistic insights into virus neutralization” (Journal of Virology, 2025):

Key:
[1] = target: HAstV1 capsid spike, biotinylated (human astrovirus 1 (HAstV1)) (UniProt O12792); experiment: BLI; competition: biotinylated HAstV1 spike (0.5 ug/mL) on streptavidin biosensors, saturated with 150 nM Fab 3H4 or 250 nM Fab 3B4 for 600 s, then dipped into 2 uM FcRn for 300 s; Octet Kinetics Buffer; FcRn shift normalised to FcRn on spike without Fab (100%) and to self-Fab control (0%); triplicate
[2] = target: T1, HAstV1 capsid spike, histidine-tagged (Human astrovirus 1 (HAstV1), GenBank …); experiment: BLI; histidine-tagged HAstV1 spike (0.5 ug/mL) loaded on Anti-Penta-His (HIS1K) biosensors; Fab in solution (3H4: 2.5, 5, 10, 20 nM; 3B4: 20, 40, 80, 160 nM); Octet Kinetics Buffer (PBS pH 7.4 + 0.1% BSA + 0.02% Tween 20); association 180 s, dissociation 600 s; global 1:1 fit; average of three replicates; conditions: both partners purified
T1 construct: also called HAstV1 spike; histidine-tagged HAstV1 spike
T1 chain: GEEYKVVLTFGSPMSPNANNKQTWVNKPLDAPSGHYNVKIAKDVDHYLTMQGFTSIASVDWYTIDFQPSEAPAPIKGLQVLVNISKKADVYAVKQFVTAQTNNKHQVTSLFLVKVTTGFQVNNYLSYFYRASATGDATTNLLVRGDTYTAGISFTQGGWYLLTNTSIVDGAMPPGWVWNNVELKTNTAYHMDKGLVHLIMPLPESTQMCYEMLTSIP

B1: Fab 3B4 (Fab, V domains shown)
VH: QVQLHQPGAELVKPGASVNLSCKASGYTFTSYWMHWVKQRPGQGLEWIGEINPSSGRANYNEKFKNKATLTVDKSSITAYMHLSSLTSEDSAVYYCHWDYYAMDYWGQGTSVTVSS
VL: DIVLTQSPATLSVTPGDSVSLSCRASQSISNNLHWYQQKSHESPRLLFKSASQSISGIPSRFSGSGSGTDFTLSINSVETEDFGMYFCQQTNSWPLTFGTGTKLDLK
notes: source: CHO-S, electroporated, purified from supernatant (StrepTrap HP)
[1]
  FcRn binding (%) left on spike saturated with the Fab: 40%
[2]
  Kd: 11.8 nM

B2: Fab 3H4 (Fab, V domains shown)
VH: QVQLKESGPGLVAPSQSLSISCTVSGFSLTTFGIHWIRQPPGKGLEWLGVIWAAGTTNYNSTLKSRLTITKDNSRSQVFLKMNSLQTYDTAIYYCVREDYDYFFGLDYWGQGTSVTVSS
VL: QAVVTQESALTTSPGETVTLTCRSSTGAVTTSNYASWVQEKPDHLFIGLIGGTNNRAPGVPARFSGSLIGDKAALTITGAQTDDEAIYFCALWFSNHWVFGGGTKLTVL
notes: as for B1
[1]
  FcRn binding (%) left on spike saturated with the Fab: 4%
[2]
  Kd: 0.49 nM
